Measured values published in paper PMC3294036 (Nature structural & molecular biology, 2012).

Key:
[1] = target: T1, calcineurin (CN A–CN B heterodimer), recombinant (UniProt Q08209;P63098)
[2] = target: T1, calcineurin (CN A–CN B heterodimer), …; assay: SEC-MALS
[3] = target: rhodamine-CN (calcineurin labelled with tetramethylrhodamine acceptor) (UniProt Q08209;P63098, tetramethylrhodamine label on CN (chain and site not stated)); assay: FRET or BRET

T1 sequence (P63098 16-170, one chain of several): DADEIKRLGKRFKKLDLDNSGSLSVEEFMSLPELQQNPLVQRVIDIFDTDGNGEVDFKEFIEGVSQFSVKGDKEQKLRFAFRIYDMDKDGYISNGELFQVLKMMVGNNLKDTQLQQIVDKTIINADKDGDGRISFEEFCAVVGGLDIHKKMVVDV

Binder | Ki [1] | other results
KRMEPAAIIITDTEIS (domain or fragment) [GST-AKAP79(333–348) I338A (PAAIIIT)] | 47 µM | 
GST-tagged wildtype AKAP79(333–408) (PIAIIIT) (domain or fragment) KRMEPIAIIITDTEISEFDVTKSKNVPKQFLISAENEQVGVFANDNGFEDRTSEQYETLLIETASSLVKNAIQLSI | 0.36 µM | 
AKAP79(333–408) (domain or fragment) KRMEPIAIIITDTEISEFDVTKSKNVPKQFLISAENEQVGVFANDNGFEDRTSEQYETLLIETASSLVKNAIQLSI |  | stoichiometry N [2]: 1
ATTO425-AKAP79(333–408) I338P variant (PPAIIIT) (domain or fragment, ATTO 425 donor label (site not stated)) KRMEPPAIIITDTEISEFDVTKSKNVPKQFLISAENEQVGVFANDNGFEDRTSEQYETLLIETASSLVKNAIQLSI |  | koff [3]: 4.24 s⁻¹
GST-AKAP79(333–408) T343A (PIAIIIA) (domain or fragment) KRMEPIAIIIADTEISEFDVTKSKNVPKQFLISAENEQVGVFANDNGFEDRTSEQYETLLIETASSLVKNAIQLSI | 39 µM | 

More lines, main results first:

Ki [1] | Binder | other results
3.7 µM | KRMEAIAIIITDTEIS (domain or fragment) [GST-AKAP79(333–348) P337A (AIAIIIT)] | 
0.08 µM | GST-AKAP79(333–408) I338P (PPAIIIT) (domain or fragment) KRMEPPAIIITDTEISEFDVTKSKNVPKQFLISAENEQVGVFANDNGFEDRTSEQYETLLIETASSLVKNAIQLSI | 
12 µM | GST-AKAP79(333–408) I338P T343A (PPAIIIA) (domain or fragment) KRMEPPAIIIADTEISEFDVTKSKNVPKQFLISAENEQVGVFANDNGFEDRTSEQYETLLIETASSLVKNAIQLSI | 
